Source: US20220323614A1, “KRAS-SPECIFIC CYCLIC PEPTIDES, COMPOSITIONS, AND METHODS OF USING AND MAKING” (Indi Molecular, Inc., priority 2021, published 2022)
Primed or numbered codes have the meaning given here. Where no end group is shown, it is not given here. [ ]: non-standard residue; d: D form. The star is where a group is joined. Az2 = aminoazidobutanoic acid, ring closure; dPhe(4-Br) = N[C@H](Cc1ccc(Br)cc1)C(=O)O; 2Nal = N[C@@H](Cc1ccc2ccccc2c1)C(=O)O; Palmitoyl = CCCCCCCCCCCCCCCC(=O)*; Tic = O=C(O)[C@@H]1Cc2ccccc2CN1; Cha = N[C@@H](CC1CCCCC1)C(=O)O; Dab = NCC[C@H](N)C(=O)O; Thz′ = not defined here; Phf = not defined here

B1: Ac-wkyf-Az2-Lys(Pal) (peptide)
peptide: Ac-[dW][dK][dY][dF][Az2]K(Palmitoyl)
modifications: triazole (positions not given here); also: cyclic via triazole, other ring-closing residue not given here
B2: Ac-wky(2-Nal)-Lys(Pal) (peptide)
peptide: Ac-[dW][dK][dY][2Nal]K(Palmitoyl)
modifications: triazole (positions not given here); also: cyclic via triazole, ring-closing residues not given here
B3: Ac-wky(Phf)-Lys(Pal) (peptide)
peptide: Ac-[dW][dK][dY][Phf]K(Palmitoyl)
modifications: triazole (positions not given here); reading uncertain; also: cyclic via triazole, ring-closing residues not given here, printed as Ac-wky(Phf)-Lys(Pal)
B4: Ac-wky(4-F-f)-Lys(Pal) (peptide)
peptide: Ac-[dW][dK][dY][4‑F‑f]K(Palmitoyl)
modifications: triazole (positions not given here); also: cyclic via triazole, ring-closing residues not given here
B5: Ac-(Thz)kyf-Lys(Pal) (peptide)
peptide: Ac-[Thz′][dK][dY][dF]K(Palmitoyl)
modifications: triazole (positions not given here); reading uncertain; also: cyclic via triazole, ring-closing residues not given here, printed as Ac-(Thz)kyf-Lys(Pal)
B6: Ac-wky(4-Cl-f)-Lys(Pal) (peptide)
peptide: Ac-[dW][dK][dY][4‑Cl‑f]K(Palmitoyl)
modifications: triazole (positions not given here); also: cyclic via triazole, ring-closing residues not given here
B7: Ac-wky(Cha)-Lys(Pal) (peptide)
peptide: Ac-[dW][dK][dY][Cha]K(Palmitoyl)
modifications: triazole (positions not given here); also: cyclic via triazole, ring-closing residues not given here
B8: Ac-wk(4-Br-f)f-Lys(Pal) (peptide)
peptide: Ac-[dW][dK][dPhe(4-Br)][dF]K(Palmitoyl)
modifications: triazole (positions not given here); also: cyclic via triazole, ring-closing residues not given here
B9: Ac-w(Dab)yf-Lys(Pal) (peptide)
peptide: Ac-[dW][Dab][dY][dF]K(Palmitoyl)
modifications: triazole (positions not given here); also: cyclic via triazole, ring-closing residues not given here
B10: Ac-wky(4-Br-f)-Lys(Pal) (peptide)
peptide: Ac-[dW][dK][dY][dPhe(4-Br)]K(Palmitoyl)
modifications: triazole (positions not given here); also: cyclic via triazole, ring-closing residues not given here
B11: Ac-(Tic)kyf-Lys(Pal) (peptide)
peptide: Ac-[Tic][dK][dY][dF]K(Palmitoyl)
modifications: triazole (positions not given here); also: cyclic via triazole, ring-closing residues not given here

Molecular target: KRAS (G12D) as expressed in G12D-mutant cancer cells (AsPC-1, SW 1990, pancreatic cancer cells) (human) (UniProt P01116)
Test: cell-based or functional assay

| pERK G12D (AsPC-1 at 4 µM for 12 hours) | Binder |
| --- | --- |
| 0.794 | B1 |
| 0.71 | B2 |
| 1.32 | B3 |
| 1.14 | B4 |
| 1.11 | B5 |
| 0.8 | B6 |
| 1.13 | B7 |
| 0.776 | B8 |
| 0.625 | B9 |
| 0.606 | B10 |
| 0.974 | B11 |

Molecular target: KRAS (WT) as expressed in BxPC-3 cells (human) (UniProt P01116)
Test: cell-based or functional assay

| pERK WT (BxPC-3 at 4 µM for 12 hours) | Binder |
| --- | --- |
| 1.16 | B1 |
| 0.871 | B2 |
| 0.757 | B3 |
| 1.71 | B4 |
| 0.851 | B5 |
| 1.05 | B6 |
| 1.27 | B7 |
| 0.895 | B8 |
| 0.982 | B9 |
| 1.09 | B10 |
| 0.806 | B11 |
